# Reference: patent US20060234906A1, “Structure of a complex of retinoblastoma protein bound to e2f, and uses thereof” (priority 2002, published 2006)
# T1: RbABC (Homo sapiens, UniProt P06400)
# T1 construct: His6-RbABC (RESIDUES 380-929); made in house; host or cells: E. coli
# T1 sequence (P06400 380-928 limits assumed): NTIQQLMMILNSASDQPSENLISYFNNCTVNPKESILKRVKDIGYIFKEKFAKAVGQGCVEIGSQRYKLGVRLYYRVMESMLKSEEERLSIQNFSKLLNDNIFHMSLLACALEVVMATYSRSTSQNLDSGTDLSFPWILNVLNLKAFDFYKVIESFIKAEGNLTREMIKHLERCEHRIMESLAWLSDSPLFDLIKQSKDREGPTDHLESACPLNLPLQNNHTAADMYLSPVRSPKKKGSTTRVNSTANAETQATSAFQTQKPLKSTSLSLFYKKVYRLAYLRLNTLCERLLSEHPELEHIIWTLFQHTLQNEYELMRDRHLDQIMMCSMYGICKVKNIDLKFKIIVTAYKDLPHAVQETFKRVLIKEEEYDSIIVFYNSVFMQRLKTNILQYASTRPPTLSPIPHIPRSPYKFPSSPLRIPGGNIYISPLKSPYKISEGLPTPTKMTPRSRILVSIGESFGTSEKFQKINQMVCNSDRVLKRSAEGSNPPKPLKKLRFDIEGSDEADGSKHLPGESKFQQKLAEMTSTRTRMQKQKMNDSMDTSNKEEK
# T2: RbAB and RbABC (Homo sapiens, UniProt P06400)
# T2 construct: non-tagged RbAB (residues 372-787); His6-RbABC (RESIDUES 380-929); made in house; host or cells: E. coli
# T2 sequence (P06400 372-787 limits assumed): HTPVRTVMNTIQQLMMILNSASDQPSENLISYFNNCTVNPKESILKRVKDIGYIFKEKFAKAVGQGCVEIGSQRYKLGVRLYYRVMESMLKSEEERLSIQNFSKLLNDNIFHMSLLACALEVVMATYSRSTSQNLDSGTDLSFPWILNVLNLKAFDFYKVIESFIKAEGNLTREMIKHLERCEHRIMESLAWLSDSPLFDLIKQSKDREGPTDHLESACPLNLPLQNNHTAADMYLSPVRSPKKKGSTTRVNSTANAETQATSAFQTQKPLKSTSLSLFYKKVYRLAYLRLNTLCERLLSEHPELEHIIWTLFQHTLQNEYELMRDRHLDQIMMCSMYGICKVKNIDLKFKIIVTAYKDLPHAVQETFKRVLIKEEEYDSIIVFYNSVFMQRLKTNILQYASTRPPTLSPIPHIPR
# T2 sequence (P06400 380-928 limits assumed): T1 sequence (P06400 380-928 limits assumed)
# B1: E2F(243-437): Recombinant human E2F1(243-437) expressed in E. coli (protein, UniProt Q01094 243-437, looked up, fragment)
# chain: LAYVTCQDLRSIADPAEQMVMVIKAPPETQLQAVDSSENFQISLKSKQGPIDVFLCPEETVGGISPGKTPSQEVTSEEENRATDSATIVSPPPSSPPSSLTTDPSQSLLSLEQEPLLSRMGSLRAPVDEDRLSPLVAADSLLEHVREDFSGLLPEEFISLSPPHEALDYHFGLEEGEGIRDLFDCDFGDLTPLDF
# Columns and labels:
# RbABC = molecular target: T1, RbABC; assay: Isothermal titration calorimetry of E2F constructs binding to RbABC; settings: ITC
# Description: (B) Summary of dissociation constants obtained by ITC measurements. The quoted errors are those produced by fitting the data to a two-state model. For the interaction of E2F(243-437) to RbAB and RbABC the affinities are too high to measure reliably and we have therefore quoted the upper limits of the dissociation constants.
# (§1) Binding of the various E2F constructs to RbAB and RbABC was measured by isothermal titration calorimetry using a MicroCal Omega VP-ITC machine (MicroCal Inc., Northampton, USA). The E2F constructs at a concentration between 100-150 μM were titrated into 12-15 μM Rb at a temperature of 22° C. Proteins were dialysed against 50 mM Tris pH 7.6, 100 mM NaCl and 1 mM TCEP. After subtraction of the dilution heats, calorimetric data was analysed using the evaluation software MicroCal Origin v5.0 (MicroCal Software Inc.). For all of the titrations, the stoichiometry of ligand binding to Rb was very close to 1.0. For E2F(243-437) binding to Rb, the binding affinity and the heat change associated with binding were such that we could only establish that binding was tighter than 10 nM.
# RbAB and RbABC = molecular target: T2, RbAB and RbABC; assay: Competition experiment (Ni column, SDS-PAGE): partition of E2F(243-437) between RbAB and RbABC; format: binding; settings: His6-RbABC against non-tagged RbAB, proteins mixed at 40 μM
# Description: as §1
# The proteins used in these experiments were His6-RbABC (RESIDUES 380-929); MW 66.07 kDa, non-tagged RbAB (residues 372-787); MW 48.67 KDa, are His6-RbAB (residues 376-792); MW 49.86 KDa, E2F(243-437); MW 21.45 KDa HPV E7 (residues 17-98); MW 9.38 KDa and E2F(409-426); MW 2.12 KDa. Protein concentrations were carefully determined by u.v. spectroscopy and confirmed by ITC titrations. The small acidic E2F proteins stain much weaker than Rb with Coomassie on SDS-PAGE. For all gel lanes contained a final RbAB concentration of ca. 7 μM. […]
molecule,measurement,setting,value
B1,binds stronger than either of the two shorter E2F fragments,RbABC,at least 16 fold
same,partitioning between the two pRb species,RbAB and RbABC,approximately equal partitioning
